Measurements as given in US10434147B2, “Treatment type 2 diabetes mellitus patients” (Sanofi-Aventis Deutschland GmbH, priority 2015, dated 2019).

System: Patients with Type 2 Diabetes Insufficiently Controlled with Insulin Glargine with or without Metformin
Assay: Treatment-emergent adverse events, 26-week study
Assay type: in vivo, human
Settings: in vivo
Excerpt: FIG. 6—Graphical study design. ^1 Insulin glargine should be injected subcutaneously once daily at dinner or breakfast time (according to patient's/investigators' preference). […] Meal used for insulin glulisine dosing should remain the same throughout the 26-week treatment period. ^4 Injection of insulin glulisine prior to breakfast, lunch and dinner.
Co-primary endpoints at 26 weeks were (1) non-inferiority (95% CI upper bound <0.4%) in HbA1c reduction with LIXI vs GLU-1 and (2) for LIXI vs GLU-3, either non-inferiority in HbA1c reduction (2a) OR superiority (one-sided α≤0.025) in body weight change (2b). FPG, PPG, IG dose, composite outcomes, AEs, and hypoglycemia were assessed.

## Insulin Glulisine QD: insulin glulisine once daily, added to insulin glargine ± metformin (comparator arm)
  Patients with treatment emergent SAE: Cerebrovascular accident: 0 n (%)
  Patients with treatment emergent SAE: Decreased appetite: 0 n (%)
  Patients with treatment emergent SAE: Dehydration: 1 (0.3%) n (%)
  Patients with treatment emergent SAE: Diabetic bullosis: 0 n (%)
  Patients with treatment emergent SAE: Epigastric discomfort: 0 n (%)
  Patients with treatment emergent SAE: Erysipelas: 0 n (%)
  Patients with treatment emergent SAE: Gastric ulcer haemorrhage: 0 n (%)
  Patients with treatment emergent SAE: Gastrointestinal disorders (SOC): 0 n (%)
  Patients with treatment emergent SAE: Hepatic mass: 0 n (%)
  Patients with treatment emergent SAE: Hepatobiliary disorders (SOC): 0 n (%)
  Patients with treatment emergent SAE: Hypertension: 0 n (%)
  Patients with treatment emergent SAE: Hypoglycaemia: 1 (0.3%) n (%)
  Patients with treatment emergent SAE: Hypoglycaemic unconsciousness: 2 (0.7%) n (%)
  Patients with treatment emergent SAE: Incisional hernia: 1 (0.3%) n (%)
  Patients with treatment emergent SAE: Infections and infestations (SOC): 1 (0.3%) n (%)
  Patients with treatment emergent SAE: Injury, poisoning and procedural complications (SOC): 4 (1.3%) n (%)
  Patients with treatment emergent SAE: Invasive ductal breast carcinoma: 0 n (%)
  Patients with treatment emergent SAE: Metabolism and nutrition disorders (SOC): 2 (0.7%) n (%)
  Patients with treatment emergent SAE: Myocardial infarction: 1 (0.3%) n (%)
  Patients with treatment emergent SAE: Myocardial ischaemia: 0 n (%)
  Patients with treatment emergent SAE: Neoplasm malignant: 0 n (%)
  Patients with treatment emergent SAE: Neoplasms benign, malignant and unspecified (incl cysts and polyps) (SOC): 0 n (%)
  Patients with treatment emergent SAE: Nervous system disorders (SOC): 3 (1.0%) n (%)
  Patients with treatment emergent SAE: Neuritis cranial: 1 (0.3%) n (%)
  Patients with treatment emergent SAE: Pancreatic carcinoma metastatic: 0 n (%)
  Patients with treatment emergent SAE: Penile infection: 0 n (%)
  Patients with treatment emergent SAE: Renal and urinary disorders (SOC): 0 n (%)
  Patients with treatment emergent SAE: Renal failure: 0 n (%)
  Patients with treatment emergent SAE: Renal failure acute: 0 n (%)
  Patients with treatment emergent SAE: Septic arthritis staphylococcal: 0 n (%)
  Patients with treatment emergent SAE: Skin and subcutaneous tissue disorders (SOC): 0 n (%)
  Patients with treatment emergent SAE: Skin ulcer haemorrhage: 0 n (%)
  Patients with treatment emergent SAE: Uterine cancer: 0 n (%)
  Patients with treatment emergent SAE: Vascular disorders (SOC): 0 n (%)
  TEAE leading to permanent treatment discontinuation: Abdominal pain: 0 n (%)
  TEAE leading to permanent treatment discontinuation: Any class: 2 (0.7%) n (%)
  TEAE leading to permanent treatment discontinuation: Ascites: 0 n (%)
  TEAE leading to permanent treatment discontinuation: Blood and lymphatic system disorders (SOC): 0 n (%)
  TEAE leading to permanent treatment discontinuation: Blood glucose decreased: 1 (0.3%) n (%)
  TEAE leading to permanent treatment discontinuation: Cardiac disorders (SOC): 0 n (%)
  TEAE leading to permanent treatment discontinuation: Cardiac failure chronic: 0 n (%)
  TEAE leading to permanent treatment discontinuation: Cough: 0 n (%)
  TEAE leading to permanent treatment discontinuation: Decreased appetite: 0 n (%)
  TEAE leading to permanent treatment discontinuation: Dehydration: 0 n (%)
  TEAE leading to permanent treatment discontinuation: Diabetic bullosis: 0 n (%)
  TEAE leading to permanent treatment discontinuation: Diarrhoea: 0 n (%)
  TEAE leading to permanent treatment discontinuation: Dyspepsia: 0 n (%)
  TEAE leading to permanent treatment discontinuation: Epigastric discomfort: 0 n (%)
  TEAE leading to permanent treatment discontinuation: Gastric ulcer haemorrhage: 0 n (%)
  TEAE leading to permanent treatment discontinuation: Gastrointestinal disorders (SOC): 0 n (%)
  TEAE leading to permanent treatment discontinuation: Headache: 0 n (%)
  TEAE leading to permanent treatment discontinuation: Hepatic mass: 0 n (%)
  TEAE leading to permanent treatment discontinuation: Hepatobiliary disorders (SOC): 0 n (%)
  TEAE leading to permanent treatment discontinuation: Hot flush: 0 n (%)
  TEAE leading to permanent treatment discontinuation: Hypoglycaemia: 0 n (%)
  TEAE leading to permanent treatment discontinuation: Immune system disorders (SOC): 0 n (%)
  TEAE leading to permanent treatment discontinuation: Invasive ductal breast carcinoma: 0 n (%)
  TEAE leading to permanent treatment discontinuation: Investigations (SOC): 1 (0.3%) n (%)
  TEAE leading to permanent treatment discontinuation: Lymphadenopathy: 0 n (%)
  TEAE leading to permanent treatment discontinuation: Metabolism and nutrition disorders (SOC): 0 n (%)
  TEAE leading to permanent treatment discontinuation: Metastases to liver: 0 n (%)
  TEAE leading to permanent treatment discontinuation: Metastases to peritoneum: 0 n (%)
  TEAE leading to permanent treatment discontinuation: Nasal congestion: 0 n (%)
  TEAE leading to permanent treatment discontinuation: Nausea: 0 n (%)
  TEAE leading to permanent treatment discontinuation: Neoplasms benign, malignant and unspecified (incl cysts and polyps) (SOC): 0 n (%)
  TEAE leading to permanent treatment discontinuation: Nervous system disorders (SOC): 1 (0.3%) n (%)
  TEAE leading to permanent treatment discontinuation: Pancreatic carcinoma metastatic: 0 n (%)
  TEAE leading to permanent treatment discontinuation: Renal and urinary disorders (SOC): 0 n (%)
  TEAE leading to permanent treatment discontinuation: Renal failure: 0 n (%)
  TEAE leading to permanent treatment discontinuation: Respiratory, thoracic and mediastinal disorders (SOC): 0 n (%)
  TEAE leading to permanent treatment discontinuation: Seasonal allergy: 0 n (%)
  TEAE leading to permanent treatment discontinuation: Skin and subcutaneous tissue disorders (SOC): 0 n (%)
  TEAE leading to permanent treatment discontinuation: Skin ulcer haemorrhage: 0 n (%)
  TEAE leading to permanent treatment discontinuation: Thrombosis: 0 n (%)
  TEAE leading to permanent treatment discontinuation: Tremor: 1 (0.3%) n (%)
  TEAE leading to permanent treatment discontinuation: Vascular disorders (SOC): 0 n (%)
  TEAE leading to permanent treatment discontinuation: Vomiting: 0 n (%)
  Total number of patients with any event adjudicated as pancreatitis by PSAC: 0 n (%)
